Experimental findings from patent publication US20260191907A1 (INSTITUT CURIE, published 2026) are described below.

Experiment [1] addresses T1, Recombinant FGFR4 (G&P Biosciences) (human, UniProt P22455 22-369).
T1 construct: Bought protein; the SPR method says only 'Recombinant; also called rFGFR4; extracellular FGFR4
T1 sequence: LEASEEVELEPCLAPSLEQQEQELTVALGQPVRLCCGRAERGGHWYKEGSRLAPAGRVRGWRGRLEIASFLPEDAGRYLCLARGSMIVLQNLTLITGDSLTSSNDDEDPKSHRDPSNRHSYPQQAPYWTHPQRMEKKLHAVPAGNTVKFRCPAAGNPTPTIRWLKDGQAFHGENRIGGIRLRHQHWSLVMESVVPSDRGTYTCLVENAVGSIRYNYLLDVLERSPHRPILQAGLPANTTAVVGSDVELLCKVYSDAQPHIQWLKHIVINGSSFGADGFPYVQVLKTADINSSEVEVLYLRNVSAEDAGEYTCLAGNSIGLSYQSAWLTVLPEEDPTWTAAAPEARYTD
Nature of the experiment: SPR (BIAcore T200), single cycle kinetics, FGFR4 amine-immobilised, nanobody as analyte, heterogeneous ligand model, component 1 (KD1). On the procedure: FIG. 3: Affinity determination of nanobodies to recombinant protein via surface plasmon resonance spectroscopy. Single cycle kinetics analysis was performed on immobilized FGFR4 through covalent amine binding on the dextran based sensor chip. The analytes A8, B1, B5, F8 and mCh were injected in 5 different concentrations followed by a dissociation phase. A final dissociation step was added after the last injection step to determine Koff rates for the KD calculations. The black curves represent the measured data and red curves show the fit analysis (heterogeneous ligand model) performed with the BIAevaluation software.
(§1) Single cycle kinetics analysis was performed with the BIAcore® T200 instrument (GE Healthcare) on CMD200M sensor chips (XanTec bioanalytics GmbH) activated with a mixture of 300 mM NHS (N-hydroxysuccinimide) and 50 mM EDC (N-ethyl-N′-(dimethylaminopropyl) carbodiimide). Recombinant FGFR1, FGFR2, FGFR3 and FGFR4 (G&P Biosciences) were immobilized on the activated biosensors (800 to 12′000 RU; 1 RU=1 pg/mm²) followed by a blocking step with 1M ethanolamine. One flow channel per chip was used as a reference to provide background corrections. The nanobodies were injected at 5 different concentrations followed by a dissociation phase. Koff-rates were determined from a final dissociation step after the last injection. The measurements with FGFR4 were performed for each nanobody on freshly immobilized protein due to strong binding and incomplete dissociation from the surface. Immobilization flow rate was 5 μl/min and binding studies were performed at 30 μl/min. Binding parameters were determined with the heterogeneous ligand model fit of the BIAevaluation software. The black curves represent the measured data and red curves show the performed fit analysis.
(§2) To determine the binding affinity of the nanobodies to FGFR4, we performed surface plasmon resonance (SPR) spectroscopy with recombinant FGFR4. As already mentioned above, FGFR1 and FGFR2 are expressed on Rh4-FR4ko cells and flow cytometry analysis indicated no binding of the nanobodies to the cells. To further confirm FGFR4-specificity, we included also affinity measurements with recombinant FGFR1, FGFR2 and FGFR3. Nanobodies A8, B1, B5, F8, and mCh were injected in five different concentrations on a FGFR coated chip.

Experiment [2] concerns the target T2, Recombinant FGFR3 (G&P Biosciences) (UniProt P22607 23-375, limits assumed).
T2 construct: Immobilised on the SPR chip
T2 sequence (looked up): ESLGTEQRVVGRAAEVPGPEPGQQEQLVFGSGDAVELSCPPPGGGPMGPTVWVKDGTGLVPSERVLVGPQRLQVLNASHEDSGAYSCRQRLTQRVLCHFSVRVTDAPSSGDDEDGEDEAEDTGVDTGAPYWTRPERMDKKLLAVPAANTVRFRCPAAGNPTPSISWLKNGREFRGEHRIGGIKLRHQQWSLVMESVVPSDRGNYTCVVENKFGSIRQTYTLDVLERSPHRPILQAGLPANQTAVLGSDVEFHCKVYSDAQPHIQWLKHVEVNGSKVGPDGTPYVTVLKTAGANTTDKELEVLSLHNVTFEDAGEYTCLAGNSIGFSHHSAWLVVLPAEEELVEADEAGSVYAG
The experiment in a line: SPR, FGFR3 immobilised, nanobody as analyte at five concentrations. On the procedure:
as §1
as §2, with “chip. Except for the negative control mCh, calculated KD values for FGFR4 binding were in the nano- and picomolar range (FIG. 3; Table 2). Affinity parameters could not be fitted with a 1:1 binding model and best fits were obtained with the heterogeneous ligand model of the BIAevaluation software resulting in two KD values for each candidate.” for “chip.”
A general note: SPR reads the build-up and loss of mass on a sensor chip optically.

Experiment [3] has as its target T3, FGFR4 expressed on the surface of RMS cells (Rh4-FR4 wt, Rh30) (human, UniProt P22455 22-802).
T3 construct: Endogenous FGFR4 of the rhabdomyosarcoma cell lines; The whole entry includes the signal peptide; also called cell-surface FGFR4; Rh4-FR4 wt cells
The experiment in a line: flow cytometry, recombinant nanobody at 30 µg/ml on Rh4-FR4 wt cells, anti-6xHis-FITC detection. On the procedure:
Control cells (C) were either not stimulated or stimulated with FGF19 in absence of the nanobodies. The cell lysates were analysed by western blot with anti phospho ERK1/2 antibody. Total Erk1/2 levels are shown as loading control.
Binding validation of selected phages, recombinant nanobodies and decorated liposomes was performed on Rh4-FR4 wt and Rh4-FR4ko cells. Specificity of selected phage clones binding to FGFR4 was determined by flow cytometry in 96-well plates (Becton Dickinson). Cell surface staining of Rh4-FR4 wt or Rh4-FR4ko cells was performed on ice in PBS supplemented with 1% FBS. 80 μL phages+20 μL PBS/1% milk were incubated on 1×10⁵ cells for 1 h on ice. […] Samples were analyzed after two washes by flow cytometry on a MACSQuant® cytometer (Miltenyi) and results were analyzed with FlowJo™ software (BD Biosciences, France). Phages displaying anti-mCherry nanobodies were used as negative control²⁴ and as positive control we used an anti-FGFR4 antibody (BT53, kindly provided by J. Khan lab, NCI, Bethesda, MD). For binding test of recombinant nanobodies, cells were detached with Accutase® (Stemcell Technologies) and washed with PBS. All following steps were performed on ice: 4×10⁵ cells were incubated with nanobody concentrations of 30 μg/ml for 1 h, washed once with PBS and incubated for an additional 30 min with anti His-tag FITC labeled antibody (LS-C57341, LSBioscience, diluted 1:10). The cells were washed once more with PBS and analyzed. Targeting liposomes were added at 0.5 mM final lipid concentration to cells in 96-well plates and incubated for 2 h at 37° C. and 5% CO₂. The cells were washed twice with PBS and detached with Accutase®.
Validation of the binding of recombinant nanobodies to cell-surface expressed FGFR4 was performed with Rh4-FR4 wt and Rh4-FR4ko cells by flow cytometry. A FITC-labeled anti-6×His-tag antibody was used to detect surface-bound nanobodies.

B1: A8 nanobody (anti-FGFR4 sdAb, NaLi-H1 library) (VHH)
VHH: EVQLQASGGGFVQPGGSLRLSCAASGRTYSRDTMGWFRQAPGKEREFVSAISSRHSHTTYYADSVKGRFTISRDNSKNTVYLQMNSLRAEDTATYYCAEWDVFDMHYALPPMWYWGQGTQVTVSS
notes: also called A8 sdAb; not shown: C-terminal Myc/6xHis-tag and an additional cysteine
What is called Kd is a measure of binding affinity in units of concentration. Consider B1, for which the Kd in experiment [1] is 0.00422 pM. Also, the binding result in experiment [2] is “no binding”. Moreover, the “median fluorescence intensity (MFI)” value in experiment [3] is around 400 MFI.

B2: F8 nanobody (anti-FGFR4 sdAb, Gimli library) (VHH)
VHH: EVQLVESGGGLVQPGGSLRLSCAASGTGYALDDMGWVRQAPGKGLEWVSAISDDESMADYYADSVKGRFTISRDNSKNTVYLQMNSLRAEDTAVYYCASYKEYKYQSGHHYFAYRGQGTLVTVSS
notes: Recombinant nanobody of about 17 kDa; also called F8 sdAb; not shown: C-terminal Myc/6xHis-tag and an additional cysteine
Turning to B2, the Kd in experiment [1] came to 19.1 pM. For the same molecule, the binding result in experiment [2] is reported as “no binding”. Also, the “median fluorescence intensity (MFI)” value in experiment [3] is around 400 MFI.

B3: B1 nanobody (anti-FGFR4 sdAb, NaLi-H1 library) (VHH)
VHH: EVQLQASGGGFVQPGGSLRLSCAASGYTSRSSAMGWFRQAPGKEREFVSAISDLTGYPYYYADSVKGRFTISRDNSKNTVYLQMNSLRAEDTATYYCAAYQDDKWTYGSQHGKYWGQGTQVTVSS
notes: also called B1 sdAb; not shown: C-terminal Myc/6xHis-tag and an additional cysteine
On to B3, for which the Kd in experiment [1] came to 1.06 pM. In experiment [2], the binding result is reported as “no binding”. In addition, in experiment [3], the “median fluorescence intensity (MFI)” value was around 400 MFI.

B4: B5 nanobody (anti-FGFR4 sdAb, NaLi-H1 library) (VHH)
VHH: EVQLQASGGGFVQPGGSLRLSCAASGRTSWLTTMGWFRQAPGKEREFVSAISSFSSKQGYYADSVKGRFTISRDNSKNTVYLQMNSLRAEDTATYYCAYASYPRHQGNGRWKDFVEYWGQGTQVTVSS
notes: Recombinant nanobody of about 17 kDa; also called B5 sdAb; not shown: C-terminal Myc/6xHis-tag and an additional cysteine
Regarding B4, in experiment [1], the dissociation constant (Kd) worked out at 308 pM. For the same molecule, in experiment [2], the binding result is listed as “no binding”. Moreover, in experiment [3], the “median fluorescence intensity (MFI)” value is around 400 MFI.
